Four substances from patent US20090191117A1 can be followed below.

Assay [1] addresses αVβ3 and αVβ5 integrins on M21 human melanoma cells (human) (UniProt P06756). In words: radiolabelled antibody binding to M21 cells, n = 2.
Assay [2] deals with αvβ3 and αvβ5 integrins on A375S2 human melanoma cells (human) (UniProt P06756). In words: radiolabelled antibody binding to A375S2 cells, n = 4.
Assay [3] has as its target αvβ5 integrin on HT-29 human colon carcinoma cells (human) (UniProt P06756). In words: radiolabelled antibody binding to HT-29 cells, n = 1.
The target of assay [4] is αvβ3 and αvβ5 integrins on A375S2 human melanoma cells (human) (UniProt P06756). In words: radiolabelled antibody binding to A375S2 cells, n = 2.
Assay [5] shares this target. In words: cell-based or functional assay.
Assay [6] shares this target. In words: 125-I antibody saturation binding to A375S2 cells, n = 7.
The target in assay [7] is αVβ3 and αVβ5 integrins on M21 human melanoma cells (human) (UniProt P06756). The assay is described as follows: 125-I antibody saturation binding to M21 cells, n = 8.
Assay [8] deals with αvβ3 and αvβ5 integrins on A375S2 human melanoma cells (human) (UniProt P06756). In words: 125-I Fab saturation binding to A375S2 cells, n = 6.
For assay [9], the target named is αVβ3 and αVβ5 integrins on M21 human melanoma cells (human) (UniProt P06756). In words: 125-I Fab saturation binding to M21 cells, n = 7.

αvβ3 and αvβ5 integrins on A375S2 human melanoma cells (human), sequence (P06756 31-1048 A375S, chain 1 of 3): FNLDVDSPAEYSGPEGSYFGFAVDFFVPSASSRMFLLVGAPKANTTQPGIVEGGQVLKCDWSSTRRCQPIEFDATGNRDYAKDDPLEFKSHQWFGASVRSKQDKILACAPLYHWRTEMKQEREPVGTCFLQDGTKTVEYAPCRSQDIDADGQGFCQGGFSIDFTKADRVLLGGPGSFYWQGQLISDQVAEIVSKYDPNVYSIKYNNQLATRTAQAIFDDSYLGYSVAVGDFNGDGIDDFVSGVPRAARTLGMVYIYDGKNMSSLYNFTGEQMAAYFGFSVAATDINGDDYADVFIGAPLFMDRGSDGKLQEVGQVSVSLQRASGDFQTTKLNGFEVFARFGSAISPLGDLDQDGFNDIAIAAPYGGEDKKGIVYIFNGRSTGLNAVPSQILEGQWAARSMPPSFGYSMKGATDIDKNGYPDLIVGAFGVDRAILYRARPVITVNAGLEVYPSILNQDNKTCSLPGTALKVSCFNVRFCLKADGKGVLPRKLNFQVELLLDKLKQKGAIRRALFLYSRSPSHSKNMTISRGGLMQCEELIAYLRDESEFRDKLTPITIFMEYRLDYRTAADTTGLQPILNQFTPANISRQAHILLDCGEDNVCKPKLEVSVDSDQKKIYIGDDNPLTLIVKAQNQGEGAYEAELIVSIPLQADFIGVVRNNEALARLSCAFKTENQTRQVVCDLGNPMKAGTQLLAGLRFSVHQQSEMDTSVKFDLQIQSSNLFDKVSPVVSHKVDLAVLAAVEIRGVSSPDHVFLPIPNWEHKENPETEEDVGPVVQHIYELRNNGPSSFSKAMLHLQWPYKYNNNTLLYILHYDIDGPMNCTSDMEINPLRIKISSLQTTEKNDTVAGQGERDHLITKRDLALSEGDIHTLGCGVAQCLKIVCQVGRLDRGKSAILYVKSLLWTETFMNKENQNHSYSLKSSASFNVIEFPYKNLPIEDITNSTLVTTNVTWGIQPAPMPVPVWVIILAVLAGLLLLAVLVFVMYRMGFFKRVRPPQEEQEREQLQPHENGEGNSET
αvβ3 and αvβ5 integrins on A375S2 human melanoma cells (human), sequence (P05106 27-788, chain 2 of 3, further chain): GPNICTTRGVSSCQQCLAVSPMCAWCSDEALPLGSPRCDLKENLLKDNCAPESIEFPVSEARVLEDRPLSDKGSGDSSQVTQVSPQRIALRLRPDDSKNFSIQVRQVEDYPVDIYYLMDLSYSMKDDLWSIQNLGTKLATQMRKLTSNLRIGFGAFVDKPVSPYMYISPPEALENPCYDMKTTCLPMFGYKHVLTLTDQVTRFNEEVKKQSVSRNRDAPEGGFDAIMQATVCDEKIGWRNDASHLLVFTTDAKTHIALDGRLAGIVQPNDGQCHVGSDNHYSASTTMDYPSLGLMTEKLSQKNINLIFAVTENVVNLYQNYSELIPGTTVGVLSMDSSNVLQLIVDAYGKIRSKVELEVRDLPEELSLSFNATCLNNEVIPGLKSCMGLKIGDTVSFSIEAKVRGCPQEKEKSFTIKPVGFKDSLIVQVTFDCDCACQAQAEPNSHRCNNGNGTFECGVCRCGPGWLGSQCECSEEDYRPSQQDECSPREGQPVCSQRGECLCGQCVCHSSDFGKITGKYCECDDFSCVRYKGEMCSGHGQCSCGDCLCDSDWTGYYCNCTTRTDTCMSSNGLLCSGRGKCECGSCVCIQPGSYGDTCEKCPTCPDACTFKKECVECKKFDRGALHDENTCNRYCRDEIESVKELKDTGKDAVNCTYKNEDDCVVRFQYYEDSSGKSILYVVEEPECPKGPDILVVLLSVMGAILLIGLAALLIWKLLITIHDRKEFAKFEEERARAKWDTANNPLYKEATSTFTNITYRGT
αvβ3 and αvβ5 integrins on A375S2 human melanoma cells (human), sequence (P18084 24-799, chain 3 of 3, further chain): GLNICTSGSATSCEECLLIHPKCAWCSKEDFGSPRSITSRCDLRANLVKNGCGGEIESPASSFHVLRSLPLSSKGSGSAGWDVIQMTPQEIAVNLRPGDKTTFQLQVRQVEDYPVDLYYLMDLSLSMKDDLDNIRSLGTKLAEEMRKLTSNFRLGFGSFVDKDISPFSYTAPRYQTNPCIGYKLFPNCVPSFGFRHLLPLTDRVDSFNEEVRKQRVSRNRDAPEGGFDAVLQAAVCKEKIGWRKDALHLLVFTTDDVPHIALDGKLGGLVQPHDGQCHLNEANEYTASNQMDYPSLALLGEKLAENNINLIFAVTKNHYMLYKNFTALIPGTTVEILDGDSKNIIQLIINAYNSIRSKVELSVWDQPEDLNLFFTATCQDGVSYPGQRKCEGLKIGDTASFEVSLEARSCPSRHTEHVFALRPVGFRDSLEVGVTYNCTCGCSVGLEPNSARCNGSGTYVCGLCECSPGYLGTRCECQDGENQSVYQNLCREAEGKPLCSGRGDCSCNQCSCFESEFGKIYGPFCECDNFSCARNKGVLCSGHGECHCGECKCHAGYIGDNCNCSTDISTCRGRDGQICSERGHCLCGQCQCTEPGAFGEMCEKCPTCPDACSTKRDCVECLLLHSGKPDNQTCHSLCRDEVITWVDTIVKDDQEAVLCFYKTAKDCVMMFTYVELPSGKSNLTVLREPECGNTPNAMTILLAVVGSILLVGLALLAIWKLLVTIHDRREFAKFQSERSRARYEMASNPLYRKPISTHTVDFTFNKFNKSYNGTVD
αvβ5 integrin on HT-29 human colon carcinoma cells (human), sequence (P06756 31-1048, chain 1 of 2): as the sequence (P06756 31-1048 A375S, chain 1 of 3) above, with S345A counted along it
αvβ5 integrin on HT-29 human colon carcinoma cells (human), sequence (P18084 24-799, chain 2 of 2, further chain): as the sequence (P18084 24-799, chain 3 of 3, further chain) above

With P1F6 (antibody), the Receptors per cell (receptors per cell) in [1] was 44000; in assay [2] it was 70000; in assay [3], 73000.

For the substance LM609 (antibody), the Receptors per cell (receptors per cell) in assay [4] turned out to be 300000.

In assay [5], CNTO 95 (antibody) registered an A375S.2 cell adhesion to fibrin, percent of adhesion without antibody, antibody at 10 µg/ml of 43.3%; an A375S.2 cell adhesion to fibrinogen, percent of adhesion without antibody, antibody at 10 µg/ml of 11.4%; an A375S.2 cell adhesion to gelatin, percent of adhesion without antibody, antibody at 10 µg/ml of 23.2%; an A375S.2 cell adhesion to vitronectin, percent of adhesion without antibody, antibody at 10 µg/ml of 1.4%. Further, in assay [6], the Receptors per cell (receptors per cell) came to 120000. In assay [7], the Receptors per cell (receptors per cell) is 200000.

On to ReoPro (c7E3 Fab), for which the Receptors per cell (receptors per cell) in [8] worked out at 370000; in [9], 660000.
